For two substances, Kd results are on record in article PMC11189624.

The target in assay [1] is Mlph-ABD labelled with ATTO 488 NHS Ester dye (mouse) (UniProt Q91V27). Put plainly: MST; Monolith NT.115, 25 °C; Mlph-ABD labelled with ATTO 488 at 20 nM; two-fold dilution series (16) of Myo5a-MTD or Myo5a-MTDΔG from 50 uM; 50 mM Tris-HCl pH 7.8, 100 mM NaCl, 10 mM MgCl2, 0.05% Tween 20.
Assay [2] deals with Melanophilin GTBM (Mus musculus) (UniProt Q91V27). To be noted: cited from earlier work.
Sequence of Melanophilin GTBM (Mus musculus) (Q91V27 176-201): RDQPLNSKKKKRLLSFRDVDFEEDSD

Sequence of Myosin-5a GTD (Q99104 1469-1853): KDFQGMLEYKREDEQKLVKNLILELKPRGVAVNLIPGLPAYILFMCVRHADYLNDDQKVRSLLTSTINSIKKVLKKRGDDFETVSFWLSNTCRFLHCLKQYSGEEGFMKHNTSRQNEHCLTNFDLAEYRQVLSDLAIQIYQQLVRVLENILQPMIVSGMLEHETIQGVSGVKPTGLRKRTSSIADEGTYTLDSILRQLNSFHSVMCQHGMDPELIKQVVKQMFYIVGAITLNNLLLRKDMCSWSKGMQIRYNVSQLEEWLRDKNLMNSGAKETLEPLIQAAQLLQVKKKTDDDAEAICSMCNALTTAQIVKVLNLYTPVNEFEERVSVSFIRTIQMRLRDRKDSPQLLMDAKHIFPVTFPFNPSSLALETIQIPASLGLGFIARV
Sequence of Mlph-ABD labelled with ATTO 488 NHS Ester dye (mouse) (Q91V27 401-590): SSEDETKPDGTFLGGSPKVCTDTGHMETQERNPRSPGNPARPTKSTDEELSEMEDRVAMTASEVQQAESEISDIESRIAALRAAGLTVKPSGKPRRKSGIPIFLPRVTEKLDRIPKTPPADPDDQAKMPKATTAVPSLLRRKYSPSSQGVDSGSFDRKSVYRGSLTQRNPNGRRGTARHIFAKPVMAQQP

By Kd is commonly meant the free concentration of one partner at which half of the binding sites on the other are occupied at equilibrium, for simple one-to-one binding. In assay [1], “Flag-Myo5a-MTD (residues 1106–1467), bacterial-expressed (domain or fragment)” yielded a Kd of 562 nM. Myosin-5a GTD (from UniProt Q99104): the Kd in assay [2] is 1000 nM.
